Test: yeast display, Sf9 membrane polyspecificity reagent, FACS + sequencing; frameworks hold sequencing errors
Summary of the method: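 Galactose induction of a Saccharomyces cerevisiae BJ5465 synthetic nanobody display library ran 36–48 hours. The cells were then stained for 1 hour at 4 °C with 10% biotinylated, detergent-solubilized Sf9 membrane reagent, pulled down on streptavidin microbeads and FACS-sorted into low and high (top ~1%) gates on expression and reagent-binding fluorescence. Labels for polyreactivity follow the gate of origin.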

| Sequence | polyreactivity (PSR sort gate) |
| --- | --- |
| QDQLVESGGGLVQAGGSLRLSCAASGSTFGYYVMGWYRQAPGKERELVAGISSSGGSTYYADSVKGRFTISRDNAKNTVYLQMNSLKPEDTAVYYCAAVRGTGTRRYDYWGQGTQVTVSS | high polyreactivity |
| QDQLVESGGGLVQAGGSLRLSCAASGSTFHWYVMGWYRQAPGKERELVAAISQSGGNTYYADSVKGRFTISRDNAKNTVYLQMNSLKPEVTAVFYCAADSVGVFNTTFFQFEYWGQGTQVTVSS | high polyreactivity |
| QDQLVESGGGLVQAGGSLRLSCAASGSTFLINAMGWYRQAPGKERELVAAISDSGGSTHYADSVKGRFTISRDNAKNTVYLEMNSLKPEDTAVYYCAATIPTTLILYGYWGQGTQVTVSS | low polyreactivity |
| QDQLVESGGGLVQAGGSLRLSCAASGSTFQDYAMGWYRQAPGKERELVAAITYSGGSTYYADSVKGRFTISRDIAKNTVYLQMNSLKPEDTAVYYCAAKDTTVFYYDDDYWGHGTQVTVSS | low polyreactivity |
| QDQLVESGGGLVQAGGSLRLSCAASGSTFRHYAMGWYRQAPGKERELVAVISWGGTSTYYADSVKGRFTISRDNAKNTVYLQMNSLKPEDTAVYYCNKAYFPIFKGYEMYYWGQGTQVTVSS | low polyreactivity |
| QDQLVESGGGLVQAGGSLRLSCAASGSTFSIYAMGWYRQATGKERELVAAIPYSGGSTYYADSVKGRFTISRDNAKNTVYLQMNSLKPEDTAVYYCAAEVYDSRWWYSGATDDYWGQGTQVTVSS | high polyreactivity |
| QDQLVESGGGLVQAGGSLRLSCAASGSTFSYNMGWYRQAPGKERELVARITRGGGSTYYADSVKGRFTISRDNAKNTVYLQMNSLKPEDTAVYYCAADRYFRYYYWGQGTQVTVSS | high polyreactivity |
| QDQLVESGGGLVQAGGSLRLSCAASGSTFSYYAMGWYRQATGKERELVASISTRGGSTYYADSVKGRFTISRDNAKNTVYLQMNSLKPEDTAVYYCAATIRPRGVARVDYWGQGTQVTVSS | high polyreactivity |
| QDQLVESGGGLVQAGGSLRLSCAASGSTFTRNSMGRYRQAPWKERELVAVISSRGGRTYYADSVKGRFTISRDNAKNSVYLPMNSLKPDDTAVYYCAARYVIPLGNTYDYWGQGTQVNVSS | high polyreactivity |
| QDQLVESGGGLVQAGGSLRLSCAASGSTFTSNAMGWYRQAPGKERELVAAISFSDASTYYADSVKGRFTISRDNAKKTVYLQMNSLKPEDTAVYYCNADYPTTAYDYCGQGTQVTVSS | low polyreactivity |
| QDQLVESGGGLVQAGGSLRLSCAASGSTFYRYAMGRSRQAPGTERELVAAISWRGGSTYYADSVKGRFTISRDNAKNSVYLQMNSLKPEDTAVYYCNADWYPYDQMYYWGQGTQVTVSS | low polyreactivity |
| QDQLVESGGGLVQAGGSLRLSCAASGSTIFVYTMGWYRQAPGKERELVAAISGSGGSTSYADSVKGRFTISRDNAKNTVYLQMNSLKPEDTAVYYCAARRHVYLRGSTFEFYYWGQGTQVTVSS | high polyreactivity |
| QDQLVESGGGLVQAGGSLRLSCAASGSTLVKYAMGWYRQAPGKERELVARITLNGGRTYYADSVKGRFTISRDNAKNTVYLQMNSLKPVDTAVYYCAKSLPHSTSRDYWGQGTQVTLSS | low polyreactivity |
| QDQLVESGGGLVQAGGSLRLSCAASGSTLYMYAMGWYRQAPGKERELVAAISWSDDTTYYADSVKGRFTISRDNAKNTVYLQMNSLKPEDTAVYYCNAETYYGNSFGPFSYDYWGQGTQVTVSS | low polyreactivity |
| QDQLVESGGGLVQAGGSLRLSCAASGSTSYRYSMGWYRQAPGKEREFVAAISWSGGSTYYADSVKGRFTISRDTAKNTVYLQMNSLKPEDTAVYYCAAVSRRGSARFDYWGQGTQVTVSS | high polyreactivity |
| QDQLVESGGGLVQAGGSLRLSCAASGTIFDVYAMGWYIQAPGKERELVAAISYGGGSTYYADSVKGRFTISRDNAKNTVYLQINSLKPEDTAVYYCAADDDVYGLEYGYWGQGTQVTVSS | low polyreactivity |
| QDQLVESGGGLVQAGGSLRLSCAASVIIFEYYTMGWYRQAPGKERELVASITYDGDSTYYADSVKRRFTISRDNAKKTVYLQMNSQTPEDTAFYSCAADYYYVYSSYGHYYWGQGTQVTVSS | low polyreactivity |

Reference: the nanobody polyreactivity screen of Harvey et al. (2022)
